This passage reports normalised SPOT signal, Boehringer light units (BLU); mean over the file's lines of this peptide results from PMC314469, “Protein Interaction Networks by Proteome Peptide Scanning” (PLoS Biology, 2004).

For assay [1], the target named is endophilin SH3 (SH3G2_HUMAN), Q99962. The experiment in a line: SPOT array.
Assay [2] addresses T1, amphyphisin SH3 (AMPH_HUMAN), P49418.
T1 chain: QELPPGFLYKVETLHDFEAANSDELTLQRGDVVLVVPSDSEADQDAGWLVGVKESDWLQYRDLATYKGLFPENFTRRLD
The experiment in a line: SPOT array.

Take AEMTFRRPAQAFPV [P07949 672-685]: the normalised SPOT signal, Boehringer light units (BLU); mean over the file's lines of this peptide is 116 in assay [1] and 26.9 in assay [2].

Turning to DRPKPPRPPTGRPS [P51512 320-334], the normalised SPOT signal, Boehringer light units (BLU); mean over the file's lines of this peptide in assay [1] was 7650; in assay [2], 574.

With DRFPLKRPRYEDSD [O94913 808-821], the figures for the normalised SPOT signal, Boehringer light units (BLU); mean over the file's lines of this peptide in assay [1] and in assay [2] were 144 and 129, respectively.

With DTYRPKRPTTLNLF [Q9UQF2 154-167], the figures for the normalised SPOT signal, Boehringer light units (BLU); mean over the file's lines of this peptide in assay [1] and in assay [2] were 1540 and 75.1, respectively.

For the molecule EALKLRRPPDASGA [P24530 73-86], the normalised SPOT signal, Boehringer light units (BLU); mean over the file's lines of this peptide in assay [1] is 42.8; in assay [2], 35.9.

DPRTPRRPRSARAG [Q9H901 24-37]: the normalised SPOT signal, Boehringer light units (BLU); mean over the file's lines of this peptide in assay [1] turned out to be 203; in assay [2], 59.5.

Take EASSPARPSKHSVG [Q92932 121-134]: the normalised SPOT signal, Boehringer light units (BLU); mean over the file's lines of this peptide was 211 in assay [1] and 231 in assay [2].

For the molecule DQIPPNKPPWFDQP [O00302 379-393], the normalised SPOT signal, Boehringer light units (BLU); mean over the file's lines of this peptide in assay [1] was determined as 46.9; in assay [2] it was 43.4.

As to DRWDPTRPPRATDT [O95180 738-751], the normalised SPOT signal, Boehringer light units (BLU); mean over the file's lines of this peptide in assay [1] was determined as 62.2; in assay [2], 360.

Turning to DPSPPRRPQHNSSG [Q96LS7 199-212], the normalised SPOT signal, Boehringer light units (BLU); mean over the file's lines of this peptide is 238 in assay [1] and 45 in assay [2].

Consider EASIFRRPYYVSHF [O15360 570-583], for which the normalised SPOT signal, Boehringer light units (BLU); mean over the file's lines of this peptide is 211 in assay [1] and 59 in assay [2].

Turning to EDEEPKRPLPRKQS [Q9BZ71 330-343], the normalised SPOT signal, Boehringer light units (BLU); mean over the file's lines of this peptide came out at 15.6 in assay [1] and 35.6 in assay [2].

Regarding DVIIPAKPPVSFFS [Q96K45 88-102], the normalised SPOT signal, Boehringer light units (BLU); mean over the file's lines of this peptide in assay [1] was 53.1; in assay [2] it was 15.7.

With DVLSPLRPSRRHFP [Q12756 1091-1104], the normalised SPOT signal, Boehringer light units (BLU); mean over the file's lines of this peptide was 2630 in assay [1] and 9010 in assay [2].

On to EDFVPFRPRRSPRM [Q14202 277-290], for which the normalised SPOT signal, Boehringer light units (BLU); mean over the file's lines of this peptide in assay [1] came to 2630; in assay [2], 20100.

AEILPRRPPTPEAQ [Q9BTK6 128-142]: the normalised SPOT signal, Boehringer light units (BLU); mean over the file's lines of this peptide in assay [1] worked out at 32.7; in assay [2] it was 57.4.

For DTLNIRRPLVKMVY [Q9P0U0 373-386], the normalised SPOT signal, Boehringer light units (BLU); mean over the file's lines of this peptide came out at 60.9 in assay [1] and 24.3 in assay [2].

Take EDALPTRPKKRARS [Q9UPW0 160-173]: the normalised SPOT signal, Boehringer light units (BLU); mean over the file's lines of this peptide in assay [1] came out at 291; in assay [2], 672.

As to DRPIIDRPIRGRGG [Q9Y367 154-167], the results for the normalised SPOT signal, Boehringer light units (BLU); mean over the file's lines of this peptide in assay [1] and in assay [2] were 192 and 325, respectively.

On to EAGSPRRPRRQRSD [Q15015 1069-1082], for which the normalised SPOT signal, Boehringer light units (BLU); mean over the file's lines of this peptide in assay [1] was 377; in assay [2], 8310.

In the case of EAQFFLRPLRSYGD [P78357 768-781], the normalised SPOT signal, Boehringer light units (BLU); mean over the file's lines of this peptide in assay [1] was found to be 104; in assay [2] it was 3170.

For EADSIPRPYRSQQS [O15015 40-53], the values for the normalised SPOT signal, Boehringer light units (BLU); mean over the file's lines of this peptide in assay [1] and in assay [2] were 0 and 10.4, respectively.

With DTALLPRPERRSSL [Q9Y2E3 518-531], the normalised SPOT signal, Boehringer light units (BLU); mean over the file's lines of this peptide in assay [1] came to 65.4; in assay [2], 112.

Consider DVVPPIKPPKEIED [O14967 255-269], for which the normalised SPOT signal, Boehringer light units (BLU); mean over the file's lines of this peptide in assay [1] turned out to be 54.5; in assay [2], 43.9.

Regarding AERPPSKPPPVELR [Q14203 913-927], the normalised SPOT signal, Boehringer light units (BLU); mean over the file's lines of this peptide is 67.4 in assay [1] and 70.7 in assay [2].

With EARKPAKPPVSPKP [Q8WXD9 1216-1230], the normalised SPOT signal, Boehringer light units (BLU); mean over the file's lines of this peptide in assay [1] was 1650; in assay [2] it was 53.6.

As for DSPLPRRPAFSGTS [Q9HBB0 94-107], the normalised SPOT signal, Boehringer light units (BLU); mean over the file's lines of this peptide in assay [1] was 971; in assay [2], 11.5.

As to EASGPERPPALLQE [Q03431 573-587], the results for the normalised SPOT signal, Boehringer light units (BLU); mean over the file's lines of this peptide in assay [1] and in assay [2] were 62.6 and 52.1, respectively.

On to DSGQPRRPGQSPLS [O75111 1249-1262], for which the normalised SPOT signal, Boehringer light units (BLU); mean over the file's lines of this peptide in assay [1] amounted to 80.5; in assay [2], 20.2.

With DTKALRRPKSAELH [P07949 469-482], the normalised SPOT signal, Boehringer light units (BLU); mean over the file's lines of this peptide in assay [1] stood at 63; in assay [2], 25.9.

Regarding DSPSFSRPSKYSPG [O14905 71-84], the normalised SPOT signal, Boehringer light units (BLU); mean over the file's lines of this peptide in assay [1] amounted to 57.1; in assay [2], 30.7.

DVTDPKRPLSFGVT [Q9P2C6 232-245]: the normalised SPOT signal, Boehringer light units (BLU); mean over the file's lines of this peptide in assay [1] is 37.5; in assay [2], 1.7.

As for DVPAFVRPARVEPT [Q9C0A3 802-815], the normalised SPOT signal, Boehringer light units (BLU); mean over the file's lines of this peptide in assay [1] came out at 72.7; in assay [2], 4540.

On to DTPPPSRPEKKKAD [P12111 1626-1639], for which the normalised SPOT signal, Boehringer light units (BLU); mean over the file's lines of this peptide stood at 101 in assay [1] and 78.7 in assay [2].

Turning to DPSGLPRPQKIPIS [Q9H591 280-293], the normalised SPOT signal, Boehringer light units (BLU); mean over the file's lines of this peptide in assay [1] was 112; in assay [2], 149.

EALEIPRPLRALDQ [Q9HCK4 1228-1241]: the normalised SPOT signal, Boehringer light units (BLU); mean over the file's lines of this peptide in assay [1] and in assay [2] was 0 each time.

With EDAKLRRPMVIEII [Q9NZ29 33-46], the figures for the normalised SPOT signal, Boehringer light units (BLU); mean over the file's lines of this peptide in assay [1] and in assay [2] were 74.7 and 34.7, respectively.

As for DTTSPSRPPGGPII [Q9Y2E5 978-992], the normalised SPOT signal, Boehringer light units (BLU); mean over the file's lines of this peptide in assay [1] was 72.7; in assay [2], 36.5.
